We go through 65 molecules from patent US20170298096A1 (CANIMGUIDE THERAPEUTICS, published 2017).

No end group written: not given here.

The experiment concerns the target T1, His-tagged P3028 (human, not fully specified).
T1 construct: the tag is put first after 'PGE73=His-tag-P3028'; also called PGE73; not shown: His-tag
T1 peptide: {His‑tag}-VFDEFKPLVEEPQNLIK
The experiment in a line: chip ELISA. A general note: In an ELISA, binding on a coated surface is turned into a signal by an enzyme label.
Consider KKLDTFFVKNSLFTER [P28R L10N], for which the ELISA signal was 365.
The result for KKLDTFFVKLSDFTER [P28R L12D] reads 89.
Molecule KKLDKFFVKLSLFTER [P28R T5K] showed an ELISA signal of 237.
In the case of KKLDTFFVKLKLFTER [P28R S11K], the ELISA signal came to 323.
The result for KKLDTFFVKLWLFTER [P28R S11W] reads 324.
With KKLDAFFVKLSLFTER [P28R T5A], the ELISA signal stood at 346.
Consider KKLDTFFVKLVLFTER [P28R S11V], for which the ELISA signal was found to be 392.
Molecule KKLDHFFVKLSLFTER [P28R T5H] returned an ELISA signal of 391.
In the case of KKLDTFFVKLSLFTEQ [P28R R16Q], the ELISA signal was determined as 133.
KKLDTFFVKLSHFTER [P28R L12H]: the ELISA signal is 460.
In turn, KKLDMFFVKLSLFTER [P28R T5M] came in with an ELISA signal of 475.
Under KKLDLFFVKLSLFTER [P28R T5L] stands 311.
KKLDIFFVKLSLFTER [P28R T5I] returned an ELISA signal of 293.
As for KKLDTFFVKLSKFTER [P28R L12K], the ELISA signal turned out to be 355.
Molecule KKLDTFFVKLALFTER [P28R S11A] yielded an ELISA signal of 318.
KKLDTFFVKQSLFTER [P28R L10Q] registered an ELISA signal of 470.
For the molecule KKLDTFFVKLLLFTER [P28R S11L], the ELISA signal was determined as 213.
The result for KKLDTFFVKWSLFTER [P28R L10W] reads 316; that for KKLDTFFVKLSSFTER [P28R L12S], 478.
Turning to KKLDTFFVKLSLFTEA [P28R R16A], the ELISA signal turned out to be 226.
On to KKLDTFFVKLRLFTER [P28R S11R], for which the ELISA signal came out at 333.
Molecule KKLDDFFVKLSLFTER [P28R T5D] came in with an ELISA signal of 295.
With KKLDTFFVKLSLFTEY [P28R R16Y], the ELISA signal came out at 311.
In turn, KKLDTFFVKLELFTER [P28R S11E] yielded an ELISA signal of 234.
KKLDTFFVKTSLFTER [P28R L10T] returned an ELISA signal of 399.
As to KKLDTFFVKLHLFTER [P28R S11H], the ELISA signal amounted to 535.
As for KKLDTFFVKLSLFTES [P28R R16S], the ELISA signal is 184.
For the molecule KKLDTFFVKYSLFTER [P28R L10Y], the ELISA signal came out at 382.
For the molecule KKLDTFFVKLTLFTER [P28R S11T], the ELISA signal worked out at 520.
KKLDTFFVKLSLFTEW [P28R R16W] showed an ELISA signal of 202.
For KKLDTFFVKLYLFTER [P28R S11Y], the ELISA signal came out at 402.
The result for KKLDTFFVKLSLFTEF [P28R R16F] reads 297; that for KKLDTFFVKLSMFTER [P28R L12M], 499; that for KKLDTFFVKLSLFTEH [P28R R16H], 239.
On to KKLDTFFVKLILFTER [P28R S11I], for which the ELISA signal came out at 289.
In turn, KKLDTFFVKRSLFTER [P28R L10R] returned an ELISA signal of 439.
Regarding KKLDTFFVKLSVFTER [P28R L12V], the ELISA signal was 545.
On to KKLDTFFVKSSLFTER [P28R L10S], for which the ELISA signal is 351.
In turn, KKLDTFFVKLSLFTEL [P28R R16L] returned an ELISA signal of 217.
Molecule KKLDTFFVKLSWFTER [P28R L12W] gave an ELISA signal of 409.
Molecule KKLDTFFVKLSYFTER [P28R L12Y] had an ELISA signal of 320.
KKLDTFFVKLSLFTEI [P28R R16I] displayed an ELISA signal of 176.
As for KKLDTFFVKLSLFTEN [P28R R16N], the ELISA signal is 311.
Under KKLDTFFVKLSIFTER [P28R L12I] stands 456; under KKLDTFFVKLSLFTET [P28R R16T], 292; under KKLDTFFVKLSLFTED [P28R R16D], 133.
The molecule KKLDTFFVKLSQFTER [P28R L12Q] displayed an ELISA signal of 651.
Consider KKLDFFFVKLSLFTER [P28R T5F], for which the ELISA signal was determined as 290.
With KKLDTFFVKLNLFTER [P28R S11N], the ELISA signal amounted to 451.
In the case of KKLDTFFVKLSLFTEV [P28R R16V], the ELISA signal turned out to be 254.
KKLDTFFVKLSNFTER [P28R L12N] returned an ELISA signal of 462.
KKLDTFFVKLFLFTER [P28R S11F] had an ELISA signal of 250.
Consider KKLDTFFVKVSLFTER [P28R L10V], for which the ELISA signal stood at 658.
In turn, KKLDTFFVKLMLFTER [P28R S11M] displayed an ELISA signal of 744.
Under KKLDTFFVKLSRFTER [P28R L12R] stands 483; under KKLDTFFVKLSFFTER [P28R L12F], 389.
In turn, KKLDTFFVKLSEFTER [P28R L12E] displayed an ELISA signal of 82.
Under KKLDEFFVKLSLFTER [P28R T5E] stands 341.
The molecule KKLDTFFVKLSTFTER [P28R L12T] showed an ELISA signal of 437.
On to KKLDTFFVKLDLFTER [P28R S11D], for which the ELISA signal was 322.
KKLDTFFVKLQLFTER [P28R S11Q] showed an ELISA signal of 768.
The molecule KKLDTFFVKLSLFTEE [P28R R16E] displayed an ELISA signal of 107.
For the molecule KKLDTFFVKLSAFTER [P28R L12A], the ELISA signal turned out to be 462.
On to KKLDTFFVKLSLFTEK [P28R R16K], for which the ELISA signal amounted to 291.
In the case of KKLDTFFVKLSLFTEM [P28R R16M], the ELISA signal came to 238.
